Patent US20210115143A1

Biological target: hPD-L1-Fc fusion protein (made in the filing, Example 1) (human) (UniProt Q9NZQ7)
Assay: SPR, Biacore X100, hPD-L1-Fc on CM5 chip, antibody in solution, 25 C

hPD-L1-Fc fusion protein (made in the filing, Example 1) (human), sequence (Q9NZQ7 19-238 limits assumed): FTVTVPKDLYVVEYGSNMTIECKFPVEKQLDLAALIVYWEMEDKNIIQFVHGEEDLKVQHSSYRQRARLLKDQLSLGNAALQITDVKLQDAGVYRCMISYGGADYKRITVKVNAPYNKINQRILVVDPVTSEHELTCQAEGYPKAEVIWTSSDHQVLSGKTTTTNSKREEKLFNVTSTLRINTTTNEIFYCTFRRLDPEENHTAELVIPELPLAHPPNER

B1: B50-6 mAb (anti-hPD-L1, human IgG1, lambda) (antibody, part only; not given: human IgG1 and lambda constants, part only)
heavy, part: QVQLQQSGPGLVKPSQTLSLTCAISGDSVSSTKAAWYWIRQSPSRGLEWLGRTYFRSKWYNDYADSVKSRLTINPDTSKNQFSLQLKSVSPEDTAVYYCARGQYTAFDIWGQGTMVTVSS
light, part: QVQLVQSGAEVKKPASSVKVSCTASGGSFSTYAISWVRQAPGQGLEWMGGIIPIFGTTKYAQRFQGRVTITADESTTTAYMELSSLISDDTALYYCTTSRGFSYGWFDYWGQGTLVTVSS
  Kd: 81.9 nM
  koff: 0.0137 s⁻¹
  kon: 167000 M⁻¹ s⁻¹
